Data set [1] deals with the molecule itself. The data set is described as follows: SEC-MALS; TodS(23–978) 1 mg/ml on Superdex G200, PBS pH 7.3 with 10% glycerol and 5 mM DTT, 0.25 ml/min, 25 °C. On the technique in general: SEC sorts molecules by how far they enter the pores of the column.
Data set [2] concerns the molecule itself. Kind of data set: SEC; purified PAS2(611–729) compared with the marker carbonic anhydrase (29 kDa).
Data set [3] deals with the molecule itself. The data set is described as follows: negative-stain electron microscopy with Ni-NTA gold labelling; Ni-NTA gold (5 nm) on C-terminal His6-tagged TodS(43–978), negatively stained with 1% uranyl acetate.
Data set [4] concerns the molecule itself. Kind of data set: SEC; purified His6-tagged PAS1(23–168) compared with the markers BSA (66 kDa) and carbonic anhydrase (29 kDa).
Data set [5] concerns the molecule itself. The data set is described as follows: not stated; the protein used for ITC is called 'the E146A mutant dimer'; how the dimer was shown for this mutant is not told.

Numbering of substitutions follows the chain as printed. Names may count otherwise.

As a reminder, the stoichiometry N is the number of molecules, sites or subunits per partner or assembly.

B1: dimerization helix-containing TodS (residues 23–978) (enzyme, Pseudomonas putida F1, UniProt A5W4E3 23-978, looked up)
chain: KEKGSEELTCEEHARIIFDGLYEFVGLLDAHGNVLEVNQVALEGGGITLEEIRGKPFWKARWWQISKKTEATQKRLVETASSGEFVRCDVEILGKSGGREVIAVDFSLLPICNEEGSIVYLLAEGRNITDKKKAEAMLALKNQELEQSVECIRKLDNAKSDFFAKVSHELRTPLSLILGPLEAVMAAEAGRESPYWKQFEVIQRNAMTLLKQVNTLLDLAKMDARQMGLSYRRANLSQLTRTISSNFEGIAQQKSITFDTKLPVQMVAEVDCEKYERIILNLLSNAFKFTPDGGLIRCCLSLSRPNYALVTVSDSGPGIPPALRKEIFERFHQLSQEGQQATRGTGLGLSIVKEFVELHRGTISVSDAPGGGALFQVKLPLNAPEGAYVASNTAPRRDNPQVVDTDEYLLLAPNAENEAEVLPFQSDQPRVLIVEDNPDMRGFIKDCLSSDYQVYVAPDGAKALELMSNMPPDLLITDLIMPVMSGDMLVHQVRKKNELSHIPIMVLSAKSDAELRVKLLSESVQDFLLKPFSAHELRARVSNLVSMKVAGDALRKELSDQGDDIAILTHRLIKSRHRLQQSNIALSASEARWKAVYENSAAGIVLTDPENRILNANPAFQRITGYGEKDLEGLSMEQLTPSDESPQIKQRLANLLQGGGAEYSVERSYLCKNGSTIWANASVSLMPQRVGESPVILQIIDDITEKKQAQENLNQLQQQLVYVSRSATMGEFAAYIAHEINQPLSAIMTNANAGTRWLGNEPSNIPEAKEALARIIRDSDRAAEIIRMVRSFLKRQETVLKPIDLKALVTDTSLILKAPSQNNSVNLDVVADDELPEIWGDGVQIQQLIINLAMNAIEAISQADCETRQLTLSFSGNDTGDALVISVKDTGPGISERQMAQLFNAFYTTKKEGLGMGLAICLTITEVHNGKIWVECPPAGGACFLVSIPARQGSGT
notes: In pGST-Parallel1 (BamHI/XhoI); not shown: GST, N-terminal, cleaved
Turning to B1, the “stoichiometry N” value in data set [1] was determined as 2.

B2: TodS PAS2 (residues 611–729) (domain or fragment, Pseudomonas putida F1, UniProt A5W4E3 611-729, looked up)
chain: SEARWKAVYENSAAGIVLTDPENRILNANPAFQRITGYGEKDLEGLSMEQLTPSDESPQIKQRLANLLQGGGAEYSVERSYLCKNGSTIWANASVSLMPQRVGESPVILQIIDDITEKK
notes: TodS sensor kinase of Pseudomonas putida F1, residues 611–729 (PAS2 domain); also called PAS2(611–729); source: E. coli BL21 Star (DE3), purified (Ni-NTA, TEV protease, SEC Superdex G75, second Ni-NTA); not shown: His6, N-terminal, cleaved
For the protein B2, the “stoichiometry N” value in data set [2] was determined as 2.

B3: TodS (residues 43–978), C-terminal His6-tagged (enzyme, Pseudomonas putida F1, UniProt A5W4E3 43-978, looked up)
chain: LYEFVGLLDAHGNVLEVNQVALEGGGITLEEIRGKPFWKARWWQISKKTEATQKRLVETASSGEFVRCDVEILGKSGGREVIAVDFSLLPICNEEGSIVYLLAEGRNITDKKKAEAMLALKNQELEQSVECIRKLDNAKSDFFAKVSHELRTPLSLILGPLEAVMAAEAGRESPYWKQFEVIQRNAMTLLKQVNTLLDLAKMDARQMGLSYRRANLSQLTRTISSNFEGIAQQKSITFDTKLPVQMVAEVDCEKYERIILNLLSNAFKFTPDGGLIRCCLSLSRPNYALVTVSDSGPGIPPALRKEIFERFHQLSQEGQQATRGTGLGLSIVKEFVELHRGTISVSDAPGGGALFQVKLPLNAPEGAYVASNTAPRRDNPQVVDTDEYLLLAPNAENEAEVLPFQSDQPRVLIVEDNPDMRGFIKDCLSSDYQVYVAPDGAKALELMSNMPPDLLITDLIMPVMSGDMLVHQVRKKNELSHIPIMVLSAKSDAELRVKLLSESVQDFLLKPFSAHELRARVSNLVSMKVAGDALRKELSDQGDDIAILTHRLIKSRHRLQQSNIALSASEARWKAVYENSAAGIVLTDPENRILNANPAFQRITGYGEKDLEGLSMEQLTPSDESPQIKQRLANLLQGGGAEYSVERSYLCKNGSTIWANASVSLMPQRVGESPVILQIIDDITEKKQAQENLNQLQQQLVYVSRSATMGEFAAYIAHEINQPLSAIMTNANAGTRWLGNEPSNIPEAKEALARIIRDSDRAAEIIRMVRSFLKRQETVLKPIDLKALVTDTSLILKAPSQNNSVNLDVVADDELPEIWGDGVQIQQLIINLAMNAIEAISQADCETRQLTLSFSGNDTGDALVISVKDTGPGISERQMAQLFNAFYTTKKEGLGMGLAICLTITEVHNGKIWVECPPAGGACFLVSIPARQGSGT
notes: In pET28b(+) (NcoI/XhoI); source: E. coli BL21 Star (DE3), purified (Ni-NTA, SEC Superdex G200); not shown: His6, C-terminal, kept
For B3, in data set [3], the “stoichiometry N” value stood at 2.

B4: dimerization helix-containing PAS1 (residues 23–168) of TodS (domain or fragment, Pseudomonas putida F1, UniProt A5W4E3 23-168, looked up)
chain: KEKGSEELTCEEHARIIFDGLYEFVGLLDAHGNVLEVNQVALEGGGITLEEIRGKPFWKARWWQISKKTEATQKRLVETASSGEFVRCDVEILGKSGGREVIAVDFSLLPICNEEGSIVYLLAEGRNITDKKKAEAMLALKNQELE
notes: TodS sensor kinase of Pseudomonas putida F1, residues 23–168 (PAS1 domain with the predicted dimerization helix); In pHis-Parallel1 (NcoI/XhoI), which has a TEV site after the His6 tag; the tag was not removed for this construct; The forward primer adds Met-Gly before Lys23; also called PAS1(23–168); WT PAS1(23–168); source: E. coli C41(DE3), purified (Ni-NTA only); not shown: His6, …
As for B4, in data set [4], the “stoichiometry N” value is 2.

B5: F46A-PAS1(23–168) (domain or fragment, Pseudomonas putida F1, UniProt A5W4E3 23-168, looked up)
chain: B4 chain with F24A
notes: TodS sensor kinase of Pseudomonas putida F1, residues 23–168 with F46A; source: E. coli C41(DE3), purified (Ni-NTA only); not shown: His6, N-terminal, kept
B5: the “stoichiometry N” value in data set [4] turned out to be 2.

B6: W85H-PAS1(23–168) (domain or fragment, Pseudomonas putida F1, UniProt A5W4E3 23-168, looked up)
chain: B4 chain with W63H
notes: TodS sensor kinase of Pseudomonas putida F1, residues 23–168 with W85H; source: E. coli C41(DE3), purified (Ni-NTA only); not shown: His6, N-terminal, kept
Take B6: the “stoichiometry N” value in data set [4] was 2.

B7: F79Y-PAS1(23–168) (domain or fragment, Pseudomonas putida F1, UniProt A5W4E3 23-168, looked up)
chain: B4 chain with F57Y
notes: TodS sensor kinase of Pseudomonas putida F1, residues 23–168 with F79Y; source: E. coli C41(DE3), purified (Ni-NTA only); not shown: His6, N-terminal, kept
Turning to B7, the “stoichiometry N” value in data set [4] is 2.

B8: E146A-PAS1(23–168) (domain or fragment, Pseudomonas putida F1, UniProt A5W4E3 23-168, looked up)
chain: B4 chain with E124A
notes: TodS sensor kinase of Pseudomonas putida F1, residues 23–168 with E146A; also called E146A mutant; source: E. coli C41(DE3), purified (Ni-NTA only); not shown: His6, N-terminal, kept
For B8, the “stoichiometry N” value in data set [5] worked out at 2.

B9: V59A-PAS1(23–168) (domain or fragment, Pseudomonas putida F1, UniProt A5W4E3 23-168, looked up)
chain: B4 chain with V37A
notes: TodS sensor kinase of Pseudomonas putida F1, residues 23–168 with V59A; source: E. coli C41(DE3), purified (Ni-NTA only); not shown: His6, N-terminal, kept
On to B9, for which, in data set [4], the “stoichiometry N” value amounted to 2.

Source of the values: PMC4861429 (The Journal of Biological Chemistry, 2016).
